From the supplement of paper PMC12042874
± gives the uncertainty stated by the source.

Experiment: amyloid nucleation score (Sup35N fusion, yeast selection) (log enrichment); library NNK1; higher = more nucleation; inactive = no reads after selection
Summary of the method: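 Nucleation score: DiMSum log enrichment of output over input reads, centred on the mode score of non-aggregating sequences. Only sequences with at least 100 input reads were kept. Reads came from Illumina sequencing of plasmid inserts before and after 7 days of growth at 30°C without adenine and uracil, in psi-negative yeast expressing Sup35N fused to peptides of 20 random codons after 24 hours of induction with 100 μM copper sulfate.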

Row | Substance | amyloid nucleation score
1 | YGFSNYRMIVQLYNLFSMYD | 3.04 ± 0.21
2 | FVLGWQI | 1.63 ± 0.56
3 | ALDVWVLMKHSYGLSTVDAL | inactive
4 | IRYLWHVLMVRFEESRWSLY | -0.061 ± 0.36
5 | CKMWTE | 0.405 ± 0.75
6 | AAMYSLICNPI | 0.518 ± 0.3
7 | GAILENYALFESRTYFMLHC | 0.383 ± 0.66
8 | NVSSLQDFRVMFWIFECTTR | 0.052 ± 0.44
9 | ELFSAIPATIHCI | -0.057 ± 1.1
10 | STSILGANFALVWSEVVTVS | -0.023 ± 0.66
11 | GWCFVSRDLVNYLMCVTAGV | -1.02 ± 0.88
12 | ILHQAILRCVSRYGLS | -0.012 ± 0.76
13 | QIIPTRFGWFSNRGCVLGSY | 1.08 ± 0.38
14 | VTRVRFGSVWGSQVHRNFVM | 0.212 ± 0.4
15 | LDKYLHLRLWHTVFWYSTIK | inactive
16 | SSSIVLCAVRCSRPSWFGML | 1.45 ± 0.32
17 | YFVFFLRDLFWRRKI | 0.408 ± 0.41
18 | RNKMMWLIICQGPPYRAWSP | 5.07 ± 0.07
19 | GRYWSCEATRLCKYFGCTMR | -0.212 ± 0.48
20 | HNSNECYYF | -1.06 ± 2.4
21 | RLIYRCLKSGCVFPWLSRMS | -0.571 ± 1.1
22 | RLFHIGGRGVRYYRLDVAMH | -0.264 ± 1.2
23 | SSYVMVCMKTYWCQEL | 2.45 ± 0.18
24 | YDKFFGVSIDDR | 0.038 ± 0.59
25 | RVFRASNDR | 0.241 ± 1.1

Row | Substance | amyloid nucleation score
26 | GTMDMSQGYSQVCLDFIVHG | -0.626 ± 1.2
27 | LPRRKLNFIGLKISISIIAV | inactive
28 | RCDSMSCTVYCEGNS | -1.03 ± 1.5
29 | VFGDT | 0.149 ± 0.97
30 | TYCNMVITRQRNA | 0.685 ± 0.38
31 | VYESGRCNLACRMFARDGCS | -1.38 ± 2.4
32 | ALSYGIVAMMVVIGPGIVVC | 0.388 ± 0.27
33 | ATMYICTRHSTAYGVFHSFV | 0.105 ± 1.2
34 | NPGNTN | 0.17 ± 0.55
35 | GSCGKGHLSPRALLFTHSWQ | -0.446 ± 0.61
36 | SNYDIWRPILSRWSDREGWV | 1.34 ± 0.36
37 | LNPCHWGAFLY | 0.648 ± 0.67
38 | VITSVGWMLVYENQFTNLHL | 6.855 ± 0.048
39 | VIAILLDGHLKVFTTLGYNR | -1.59 ± 1.5
40 | DMVEMVHCSCF | 1.49 ± 0.21
41 | VVGYRRTMGLVEFSLASVSN | -0.806 ± 0.76
42 | GKAASRNGGMWKEMRFEACD | 0.046 ± 0.42
43 | SFNNMANMAYYRVRGVLVL | -0.438 ± 0.6
44 | AGLKV | -0.479 ± 0.4
45 | TYMFGHMGADMKGRRSWWCE | 0.354 ± 0.44
46 | CNFMVSYRISFMLRLIQYYV | -0.938 ± 0.31
47 | TCRKTTMQRRSTHNLVKCDE | -1.47 ± 2.7
48 | IYLLLCLENRVDMLE | inactive
49 | GLNCSGNGEVIWQP | -0.403 ± 1.4
50 | RLGRNVNEHRVPLVLACVED | 0.964 ± 0.93

Row | Substance | amyloid nucleation score
51 | SVWVENLEFIWRYLPSSVYP | 0.076 ± 0.3
52 | SKTEMSTTMFY | -0.037 ± 0.38
53 | GSGWEGSTVRFSQASFGELW | 0.328 ± 0.97
54 | ITVGEYVNHCSG | 0.224 ± 1.4
55 | VQNDTTLHVIFILGRAW | 2.44 ± 0.12
56 | CVCMVRYGVRAHR | 0.469 ± 0.64
57 | GKNTYVCVGSSASSFWGSLL | 0.86 ± 0.77
58 | MWGARLRVWPGYERLSAFNH | -0.552 ± 0.44
59 | IMTSWFLPQSCQNDWDKLY | -0.012 ± 0.2
60 | NEFKFKVRTKEFRFEVCLKY | inactive
61 | GFFVNNCLFSILLDFWVSEE | 1.24 ± 0.26
62 | FRCGKGVVMSYELVNSIVGS | 0.407 ± 0.76
63 | ISNCYQVKALFVSHFLIRDR | 4.29 ± 0.047
64 | ICSWPNRRVAVPH | -0.482 ± 1.2
65 | FQSSNSSYITIHYCLVGRFT | 6.013 ± 0.048
66 | FDIMNDIK | 0.658 ± 0.52
67 | FNYFYVLYS | 5.35 ± 0.074
68 | HIDWSNVSYGDDRYGSGDCR | 0.142 ± 0.19
69 | LAITDKPNANARRPPTPVLY | 0.623 ± 0.51
70 | HYSGIVWCSVREL | 1.72 ± 0.52
71 | SNTTIFFSFNRVPTISLNHS | 3.82 ± 0.1
72 | MNVTCDGRMGIQVDPVRYNR | -0.122 ± 1.4
73 | QCDVS | inactive
74 | WRCRGCMWAHRAWGNSSCV | -0.655 ± 0.98
75 | TDCHALRMWIFAGFWWHNFS | -1.04 ± 0.84

Row | Substance | amyloid nucleation score
76 | FMDMDRLMSRGLQVNKGVML | -0.228 ± 0.68
77 | YWNDVAS | -0.931 ± 0.75
78 | SACLQVWE | 0.284 ± 0.4
79 | SWYGVYPFEIGFESGLESTL | -0.429 ± 0.41
80 | SLVSYSVHANFCVFIWTNGS | 1.25 ± 0.44
81 | PSTDLWWLGNTLSIGNRIVY | -0.879 ± 0.69
82 | EYNQG | -0.76 ± 1.2
83 | VSGFGSTYLLCVN | 0.589 ± 1.2
84 | SMRWVDL | 1.19 ± 0.97
85 | GSSWYNNPVQGILGGYNL | -0.348 ± 0.47
86 | LSEYVKEAVVDPRLTFARIA | -0.764 ± 0.89
87 | KVIRAGHDVVPRTYRRRSRR | 1.29 ± 0.58
88 | RVIAYKANPVNTFSYPVWAE | -0.133 ± 0.44
89 | STGPAFDSKGVSTAMSRASF | inactive
90 | GCMAPNCCGWEGVDEMSWVR | -0.013 ± 0.84
91 | TCEESEDDGGIMAVPDWM | -0.42 ± 0.57
92 | SYNWMVVFVYECI | 0.931 ± 0.57
93 | LKRVGSNLNT | -0.229 ± 1.4
94 | FIIITYFGLGKTVYARRKCC | -1.92 ± 2.7
95 | TFGPTHLGLVKYVEIDYHVA | -0.725 ± 0.9
96 | DLRFSTRLGHCISVFMRKIW | inactive
97 | LKAIFVFFVEFRDPLIMRES | 0.269 ± 0.79
98 | SFLCCRVFLKSRRCRCGFMQ | 6.01 ± 0.046
99 | IVAVDFGLFRMRTIPRAAVS | -0.144 ± 1.6
100 | MVVVIIYL | 1.53 ± 0.35

Row | Substance | amyloid nucleation score
101 | FCYIDMEFSFCLLSAEFISV | 0.03 ± 0.53
102 | FSTGNPWVD | -0.342 ± 0.8
103 | PFTRVGLDMYLDDSVKKGWD | -0.528 ± 0.36
104 | IMSSL | -0.507 ± 0.73
105 | KFIFVGNGECMRPGCSDDSL | 1.99 ± 0.38
106 | FGINVVRGKCRVRSLKDIDS | -0.086 ± 0.48
107 | PQLTRSGQ | -0.14 ± 0.28
108 | ENTVDPLRLDWCSGTSVWYK | 0.54 ± 0.88
109 | IHLCYRDYRMHVARLSAETG | 0.02 ± 0.53
110 | NRIPHGSRRSRAISKVRDA | 0.728 ± 0.97
111 | NELMSYVWQDKPRKYRYLF | 1.2 ± 0.13
112 | PAMSVGQRFYGEQHSCGLSA | -0.583 ± 0.43
113 | KKRICFMSLSQRWRSRTTCW | 0.164 ± 0.3
114 | YFWASHISSVYLNLETCDTM | -0.417 ± 0.42
115 | SLVLSSFPLLIDNSSIESLV | -0.82 ± 0.42
116 | LIGHRSRS | -1.57 ± 1.1
117 | FFNCFLLDNNYVSLYLWSKD | 6.832 ± 0.068
118 | NSWSFGPSGTQFGLSLFYGL | -0.979 ± 2.7
119 | FRYGYLFKLSNVWIDDMLRR | 1.96 ± 0.55
120 | KAKTFI | 0.268 ± 1.2
121 | QNNCSPARPTAHNYVGGHAT | 0.656 ± 1
122 | GLQFSFVEFFSLYVESEDHY | 0.332 ± 0.35
123 | WLHIPYS | 0.547 ± 0.61
124 | RYYMGTIWILGEFGSLFWMM | 0.06 ± 0.39
125 | YCLDGAFALVVNSLWLITAA | inactive

Row | Substance | amyloid nucleation score
126 | VYWMFV | 0.369 ± 0.3
127 | FNLATIPISQFITPNSPLLR | -0.091 ± 1.1
128 | ILVPYLIAFFMEYRSRLCRF | 0.254 ± 0.27
129 | SVTHKTKCRLQFGVEMGQN | 1.13 ± 0.8
130 | SWLGPRWSFWFWFFIWSSGL | 1.37 ± 0.74
131 | NTYDHMTYNRGFRSM | inactive
132 | THGVSWQLVRDAILNGGPKR | -1.12 ± 1.3
133 | NLHVQGVTRNGC | 3.84 ± 0.076
134 | DPLRMILVISFRMVRFIQWP | 0.072 ± 0.32
135 | ILGFSRWNLNCISSRGRKIR | -0.297 ± 0.39
136 | STNACRPVMAQGDHGLSVLR | 0.283 ± 0.6
137 | RIGVLNCWEVWADVTQREHL | -0.769 ± 1.1
138 | DTYKSPKHYRRL | 0.608 ± 0.64
139 | PPRYLMRDLTHWSPYR | 1.34 ± 0.7
140 | VVCRVNTSVMGFKSNCRLGV | 0.624 ± 0.6
141 | FCNVQIFFAVITHPFYSTLL | 1.48 ± 0.24
142 | FCSLGKFGSRKCF | 1.07 ± 0.61
143 | SCDMYQYEIV | inactive
144 | TVNARVGVSIFYYWV | 0.345 ± 0.93
145 | GGIYANYNFGYLARTESGLG | 1.04 ± 0.7
146 | CYLKGYA | 0.853 ± 0.52
147 | SFRSLFVFYDN | inactive
148 | FGFMKKRRDLSY | 2.96 ± 0.091
149 | VLEDCNMRGK | 0.789 ± 0.36
150 | WGKLTKQERGWDNDKVNQEC | 0.094 ± 0.4

Row | Substance | amyloid nucleation score
151 | VYPWPVERSNFPTSALSYTK | -0.843 ± 0.6
152 | NRHRRVPFRISTALLPVKLQ | 0.632 ± 0.5
153 | SLFRVDYIDRFLSQFVEYNG | 0.333 ± 0.55
154 | QLVGFVVPRRSSPGVHTGEC | 1.21 ± 0.53
155 | ETRANGVESFSTDLYMHFLD | 1.16 ± 0.36
156 | VINRSQIRGHRAFSWVGPSL | 0.53 ± 0.38
157 | NKTVVLDHPHVCFPGSRSHL | inactive
158 | SLAYCSFHMLKIPLRSGPTW | 0.01 ± 1.2
159 | VAWPRGPVKARGIYISGRIC | inactive
160 | VLRFGRWSYFVGVLPEKKRQ | -1.18 ± 2.4
161 | TQRFFIVRMPSVCNNYYHLA | 4.52 ± 0.067
162 | EAPGTKFCC | 2.94 ± 0.1
163 | TQSGVIQDAACPAMGMSNVL | 0.289 ± 0.66
164 | NRCRDCREVYIKFPTWAWSW | -0.253 ± 0.43
165 | TEDAQRGD | -0.302 ± 0.5
166 | VSYYITCRGKVETIALADRM | 0.088 ± 0.93
167 | KSRAGMNKACTQLYPLV | -0.215 ± 0.34
168 | NGFPTNELLFPALKVCNSRV | 0.945 ± 1.1
169 | SCGVLVSLFLYPKLNFGFYL | 0.419 ± 0.4
170 | SVNLSI | -0.196 ± 0.37
171 | VVASAFSSL | 0.388 ± 0.93
